Test results reported in the DeepSol protein solubility set.

test: soluble on expression in E. coli; label from the status in PepcDB or PDB records

Row | Sequence | soluble on expression in E. coli
1 | MRGSHHHHHHTDPALRAIKVYGVPGWGSTISELMLTLADIPYQFVDVSGFDHEGASRELLKTLNPLCQVPTLALENDEIMTETAAIALMVLDRRPDLAPPVGRAERQLFQRLLVWLVANVYPTFTFADYPERWAPDAPEQLKKNVIEYRKSLYIWLNSQLTAEPYAFGEQLTLVDCYLCTMRTWGPGHEWFQDNATNISAIADAVCQLPKLQEVLKRNEIIGLCGR | soluble
2 | MRGVVFLHAFPYSPRMWEGEVALLKTRLPVLAPHYLGLSLGKAAEKVLGEMDEAGLEQAVFVGLSMGGYLVFELFRKAPERFLGTVLSSTRAGPDSEEAKRNRYALRERVLKDGVGFLPEALLPSHLGRTTQATKPEVVEKVRAIILEASPEAVAETLVALAERPDSTPLLSRMQVPALVLVGEEDTLTPPEEARRMWKALPDARMLILPETGHLANLENPKAFRTALLGFLAEFF | soluble
3 | MRGWHHHHHHGIRMRARYPSVVDVYSVEQFRNIMSEDILTVAWFTAVWCGPCKTIERPMEKIAYEFPTVKFAKVDADNNSEIVSKCRVLQLPTFIIARSGKMLGHVIGANPGMLRQKLRDIIKDN | soluble
4 | MRIAILGGGVAGSTLAYLLSRINYEVTIFDINQHYVKPCGDIVPNIYTPPFNWKETFGIRRFSFYIDGEKIYDVEYRHTKWLVIDKWKWINDMRKSSKVIVTHDNNAKEFDYVIDSRGPYPMDREVVYTTRAIIETEEFDDEAILEFNTRYTGFYWIFPSKENEYNIGAGFLEYKNSKELLNYYLRKRFKNFEVKDIRGAPISIGSVKNKKLRIGEARGLVFPLSGEGIRPSAISAEYAFEAIHKEKDLDGFLNEKLSIIEKRIKIQKMLLDLYRYSSLNLRKTFMRIFFKNEVLIDTYLEDKMDLNGIIESLKSVRANGGIIRKFEEQERLEHHHHHH | not soluble
5 | MRIALIIFPIHASHGCILQTYALYRTLRKLGHDVSIIDRQWDKLSLKNQLVYAVKSLIISIKRKCIRPLTIEGTRKIIMSELQTFVDKHLSNRKIYFRTPRYEELPHYDAFIVGSDQTWRPKYVSDILYYYLCFVPAEEKVKRIAYAPSFGTEEWEYSEQQTLQCRELVSRFDAIAVREDSGAKLCGKYLGINVEHVLDPTMLLNKEDYLSETGIMPSEQNRLSYYLLDNSKSKMQIVEEICKELHLTVQRINTETENHKAGIKERVAPSIEKWIEGFVNSKFIVADSFHATVFAIIFNKHFITIANKDRGIARFESLLKMFGLENRLITDIRQVTPELVHESIDWGKVNQTMWAKQSSSLDYLKFNLGNI | not soluble
6 | MRIFLLFLFFVLFTFGVEGYVIEEINGSTGLRIHKEIKRKVYITEDALITETEKEFMVQKIENGLPRIYRVIKSSKSYMDFSKMTPLFLVSLPFLDCKQRVCVVNRGAFRPTNEYKKIRGFKARKVVVESHALGKKTTLIQWYTKEWKELVEANRLEDKFYVNFIRAIMKEKNLSEANIPLKEIQNFLKEINEKFGGVVRTQQQMPLFNTYSEVISVKKTEIPDYIYKLPEGYTKIK | not soluble
7 | MRIGLFTDTYFPQVSGVATSIRTLKTQLEKMGHNVFIFTTTDRDVDRYEDWQIIRIPSVPFFAFKDRRVAYRGFSKALEIAKQYKLDIIHTQTEFSLGLLGIAIAHELKIPVVHTYHTQYEDYVRYIAKGMVIRPSMVKYIVRGFMSDLDGVICPSEIVYDLLLKYKVAAEKRVIPTGIELEKFQRPEITEEDVSDLRAKLGISSDETMLLSLSRVSYEKNIQAVMAALPSVLEEEDKVRLVVAGDGPYLPHLKSQAKKLGIEDKVVFTGMIAPGETALYYKAADFFISASTSETQGLTYLEALASGTPIIAHGNTYLDNIITDKMFGILYYHDNDLAGAILEAAIVTPEKDETKWAEKLYEISAENFGKRVYEYYLDLTISKDFHNDLNGEDSTMKRLTRMVTHLPTKAITLPVNGSVRIIKGSAKQVKKIRNIKKFLDLEHHHHHH | soluble
8 | MRIIEQDPWLRPYESVIESRLKYARKRETDLTGGRSGGLSDFANGHLYYGLHQDGDSWVIREFAPEATAVYLIGELSRWRRLPQFRFAPVDEAGSWELRLSCRLLPHGSRYRLFFEWPGGEGERIPAWCNRVEQDPETYLFYAQVWVPDTPYEMKHPHPNR | not soluble
9 | MRILVNLILFSLIPLAFSNENSSSYLIARPLIFETQLKNINDNVNLHCTSWRFAAETNNLAPWKTIPAECADYVKDYLMGEGYVVDVERVSEEAKVYASSFESNGDGKDIWIFDIDETLLSNLPYYMEHGCGLEVFDHSKFDMWVEKGIAPAIAPSLKLYQKVIHLGYKVILLTGRRENHRVITVENLRNAGFHNWDKLILRSLDDRNKTATMYKSEKREEMVKEGYRIRGNSGDQWSDLLGSAMSERSFKLPNPMYYIP | soluble
10 | MRKIIVGSRKSKLALTQTNWFIDQLKALGLPYEFEVKEIVTKGDVILDVTLSKVGGKGLFVKEIEHALLTKEIDMAVHSMKDMPAVLPEGLMIGCTPKRVDPRDAFISKSGASYKELAEGAILGTSSLRRSAQLLAARPDLQVKWIRGNIDTRLRKLKEEDYDAIILATAGLQRMGWDNEVITEHLDETLCVPAVGQGALAIECREDDKDLLQLLAHINDAVTEKTVAAERVFLHKLEGGCQVPIAGYATITENDAIELTALVGSMDGSVLLKETVVGTDPEKVGLEAADRLIKQGAKELILAANKGQQ | not soluble
11 | MRKLALVPIQFYRYAISPLMASHCRFYPSCSCYAYEAIDNHGLLRGGWLSIRRLGRCHPWNPGGYDPVPAVPTSRSSSMAELEHHHHHH | not soluble
12 | MRKLKYQRDFFPLLHLNYGSNWRCGMDRIAYFKSLLEKNPDNPMVHYSLGLEYFKVKDYENAIKHLERYLELQEDEGAAYRTLAKCYEELGEFQKAIEVLEEGIRQAMKYNHPSMAQEYQQWIEELKGMAFLEHHHHHH | not soluble
13 | MRKLNNHDVHKRYQDRLEEDVEFTINYELPLSCLWSTIKDFSSDFEEKTEAFFILFKELLRRGHLKLQRDGQIIGHTPEEWEQIFREVWPEYEIEPNPLPGYAPFDIGMWLTVEAPAYAVWIDPEDGSEYWAG | soluble
14 | MRKLSKRLLGTVHVATSSTPPGSPFSLVNRQFLLLPTMDKLMGEICREKQIVDRCKMSIDRKEPYDLISMKQQIEISLSKITAMKMRLFHMQNNSETHNSPCSINQQILNTQLLCHGARKVRESLRKDESPNEKVLRETEQTILVLNEKLDLLSNCCSQKESSLTPISVRRSRGGPSKTNNFPVAVSGFLKIRVTGLADLPNNTKHRSGRYASEHFAQLIKKKKSMFGRHGFRRYPNRSSAVNDYIIVIHVGGKEVATMVWNEKKTMVGGDEETIQLFKSRQLDFEIYHTDSRSLCAIGSMQLESLLDEHDAKFPFATFAHRVVNLIPEGTLHFQTTYSDPEQSMEKKLGDTCTDGVSKLAVSMRKSGSVLARGSKTFYSPRTAISLNQFVPLTPSMKSRTRRIDSLDSYRLISEIGVGAFGTVKLGTKDP | not soluble
15 | MRLIHLSDIHAGKNLGRVSRNEDVVYALNQVVDFCKENKPDLVLVAGDVFDKANPDNEAKEIIFDFFLKLHSLNIPSVVISGNHDSYEFMKSLKKLLQVIDVYVVPKPNLEECVLDVKGLKIACLPYPSERVLTRAGEDSKLSYAVLVEKAIKYLYEKVKDAPLKVLLSHLFIAGSKYTRTEREATITDYYAVEPSAIPEGFDYVALGHVHRYQRIEKAPTHVYYTGSLFQLDFSEAGQEKFFNFVELKEGEPPHVEAIKLSLKNPLHTFEINQENYAKELEKIKDVQGYIKVHLIVKDKTKMHLVAEKVKEALGEKLIKLELLTPEEAIKKRLEEEREIQKLNLLDLYRDYFKESYGREVPQEIIKTVSQLLEQVHES | soluble
16 | MRLNIAPAPWPGAPVVVLSAGLGGGGGYWLAQRAALEEQYQLVSYDHNGTGENAGPLPAGYSLATMAGELFSALQAAGIARFALVGHALGALIGLQLALDRPEAVSALALVNGWLSLSPHTRRCFQVRERLLHAGGAQAWVEAQPLFLYPAEWMAARLPRLEAEDALAISHFQGKENLLKRLQALKQADFSRRASAIACPTLIISAADDLLVPASCSRVLQTAIPGSQLVEMPWGGHACNVTDADTFNTILRDGLSAMLPVARETR | not soluble
17 | MRLNLRQLQIFCAITRFGSTTSAGNALALSQSATSAALNELEGALGTRLFDRVGKRLVLNDSGQSLLPRAMKMLENAQQIEDSFLLPDTTLNARLRIGSSSTIGNYELPSIVGALRESAPLLRVDVDIGNSALIARKVARFEIVMGLIEAPCHLPELIAEPWSVDEMVIVAGINHPLARQKQVSLGELQDAEWLLREPGSGTREEVEHLLLRHLHDLQDLREIGSSEAIKRTLAQGIGISCLSRRVVADLLASGQLKALASPLPPLNRRFFMIRHRDKFISPSLERFREACRQATDQAATLRHGLSHNASPTSSTTP | not soluble
18 | MRLPALFLAHGSPMLAIEDNAYTAFLGKLGEGIRPQAVVIFTAHWMTRQPTVSAVEGTYDMIYDFSGFPRELYEVVYLARGSVEWAERVRERLAGVAEVAVDSTRGLDHGSWVLLHRLFPNADIPVVQASVLPWWTPKQLFQLGEALRPLRDEGLMVIGSGGTVHNLMALRWEGHAEADAWAMAFDDWLLSRSAAHSEEVFDYENKAPYAKQAVPTPEHLAPYWIAYGAGDRDQAPRVLFREYQYGSLSLMAVTF | not soluble
19 | MRLTGKQTWVFQNDIYVNATGTAVGPKEAEGPLGKKFDISYGDLHCGEENWELAERRLMSDSIQQAVQKGNIKTSQIDFFLAGDLLNQTVTANYVARKWGIPFLGMFSACATSMETLAVGSAFIDGGFANRVLATVSSHNATAERQFRYPTEYGGQKPGTANSTVTGAGSILISNEKSAIKITSATIGKVQDLGITNPLDMGAAMAPAAAHTIQQHFEDLRRSADDYDLIVTGDLSAVGTPIAKQLLLEEGYDLGHIYNDCGLMIYESSQEEVFAGGSGCACSAVVTYGHLLHEMQKGNLQRIFVVATGALLSPMMMQQKETIPTIAHGVVFERVKGELEHHHHHH | soluble
20 | MRMFSVQPIAFVHNERKEIKDDEWGEVRSRITLTEMYAEKSIQGIEDFSHIEVVFYFHKVTDEQIQYFARHPRNNKDYPEVGIFAQRGKNRPNRIGVTIVKVIKREGKSIIVEGLDAIDGTPILDIKPIMKEFMPTEEIHQPKWATDIMRQYWKGNVVKLEHHHHHH | soluble
21 | MRMKKLTTLISAALLSTSVSFVAQAQDTVAIVLSTLNNPFFVTMKDGAEAKAKELGYNLIVLDSQNDPSKELSNVEDLTVRGVKAILINPTDSDAVSNAIRIANRSKIPVLTLDRGASRGEVVSHIASDNVVGGEMAGHFIEAKIGSDAKVIQLEGIAGTSAARERGEGFMNAVKGSKMQLLASQPADFDRTKGLNVMENLLAANPDVQAVFAQNDEMALGALRAIQASGKSVMIVGFDGTDDGIAAVERGQLAATVAQQPDMIGAIGIETADKMLKGEKVEAYIPVALKVIAK | not soluble
22 | MRNICFVACMLFCLASASGKTVKNHPFVSIADSILDNVLNLYQTEDGLLTETYPVNPDQKITYLAGGAQQNGTLKASFLWPYSGMMSGCVAMYQATGDKKYKTILEKRILPGLEQYWDGERLPACYQSYPVKYGQHGRYYDDNIWIALDYCDYYRLTKKADYLKKAIALYEYIYSGWSDELGGGIFWCEQQKEAKHTCSNAPSTVLGVKLYRLTKDKKYLNKAKETYAWTRKHLCDPDDFLYWDNINLKGKVSKDKYAYNSGQMIQAGVLLYEETGDKDYLRDAQKTAAGTDAFFRSKADKKDPSVKVHKDMSWFNVILFRGFKALEKIDHNPTYVRAMAENALHAWRNYRDANGLLGRDWSGHNEEPYKWLLDNACLIELFAEIEKLEHHHHHH | not soluble
23 | MRNIDFSPLYRHAIGFDRLFNLVENSANKPSQQNGYPPYNIEQKDENNYRITMAVAGFSEDALTISQNEHMLIVSGDITSSEIKPTYVYQGIAERNFERKFQLADYVTVSAASMENGLLHIDLVREVPEAVQARKIAINK | not soluble
